This test has as its target Calmodulin (human full-length CaM, Ca2+-loaded) (human, UniProt P0DP23 1-149). In words: cross-linking.

B1: p85α cSH2 domain V663K/V667N/L687F/L691V/L696N (residues 614-724) (domain or fragment)
chain: EDLPHHDEKTWNVGSSNRNKAENLLRGKRDGTFLVRESSKQGCYACSVVKDGENKHCVINKTATGYGFAEPYNFYSSVKELVNHYQHTSLVQHNDSLNVTLAYPVYAQQRR
Turning to B1, the binding result is recorded as “binds”.

The values are drawn from paper PMC6454211 (Biochemistry, 2018).
